The results in this text go back to patent US20240141045A1 (PRECIGEN, published 2024).

For one test, the target named is T1, PD-1 Fc fusion protein (UniProt Q15116 25-167, limits assumed).
T1 construct: Antigen immobilised on the CM5 chip in all PD-1 SPR assays; also called PD-1 fused to human Fc region; PD-1-Fc antigen; not shown: human Fc region
Kind of test: SPR (Biacore 3000), recombinant PD-1 Fc immobilised on CM5 chip, fusion protein injected. On the procedure: Surface plasma resonance (SPR) analysis was performed using Biacore3000, CM5 chip, an amine-coupling kit, 10×HBS-P running buffer and Glycine for. […] Dissociation was allowed to proceed followed by regeneration of the chip surface.

In test [1] the target is T2, TGF-β1 (UniProt P01137 279-390). Nature of the test: cell-based or functional assay.
The target of test [2] is T2, TGF-β1. Nature of the test: cell-based or functional assay. The source holds these as a separate data set.

T1 sequence (Q15116 25-167 limits assumed): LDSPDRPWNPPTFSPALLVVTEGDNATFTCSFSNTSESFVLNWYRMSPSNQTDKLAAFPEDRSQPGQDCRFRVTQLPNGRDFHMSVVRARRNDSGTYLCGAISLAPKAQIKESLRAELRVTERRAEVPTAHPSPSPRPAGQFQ
T2 sequence (P01137 279-390 limits assumed): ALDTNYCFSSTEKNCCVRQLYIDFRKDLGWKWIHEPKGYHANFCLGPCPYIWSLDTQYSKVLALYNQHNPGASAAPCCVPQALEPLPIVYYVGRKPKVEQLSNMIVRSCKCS

B1: Anti-PD1 (VH7-VL6) IgG1-ADA2 (antibody)
heavy (part 1 of 2): QVQLVQSGVEVKKPGASVKVSCKASGYTFTNYYMYWVRQAPGQGLEWMGGINPSNGGTNFNEKFKNRVTLTTDSSTTTAYMELKSLQFDDTAVYYCARRDYRFDMGFDYWGQGTTVTVSS
heavy (part 2 of 2): GGGGSGGGGSSIDETRAHLLLKEKMMRLGGRLVLNTKEELANERLMTLKIAEMKEAMRTLIFPPSMHFFQAKHLIERSQVFNILRMMPKGAALHLHDIGIVTMDWLVRNVTYRPHCHICFTPRGIMQFRFAHPTPRPSEKCSKWILLEDYRKRVQNVTEFDDSLLRNFTLVTQHPEVIYTNQNVVWSKFETIFFTISGLIHYAPVFRDYVFRSMQEFYEDNVLYMEIRARLLPVYELSGEHHDEEWSVKTYQEVAQKFVETHPEFIGIKIIYSDHRSKDVAVIAESIRMAMGLRIKFPTVVAGFDLVGHEDTGHSLHDYKEALMIPAKDGVKLPYFFHAGETDWQGTSIDRNILDALMLNTTRIGHGFALSKHPAVRTYSWKKDIPIEVCPISNQVLKLVSDLRNHPVATLMATGHPMVISSDDPAMFGAKGLSYDFYEVFMGIGGMKADLRTLKQLAMNSIKYSTLLESEKNTFMEIWKKRWDKFIADVATK
light: EIVLTQSPATLSLSPGERATLSCRASKGVSTSGYSYLHWYQQKPGQAPRLLIYLASYLESGVPARFSGSGSGTDFTLTISSLEPEDFAVYYCQHSRDLPLTFGGGTKVEIK
notes: not shown: IgG1 heavy chain constant region; light chain constant region
On to B1, for which, in the test with PD-1 Fc fusion protein, the Kd is 0.509 pM.

B2: Anti-PD1 (VH7-VL6) scFv-ADA2 (scFv)
chain 1: B1 heavy (part 1 of 2)
chain 2: B1 light
chain 3: B1 heavy (part 2 of 2)
As to B2, the Kd with PD-1 Fc fusion protein was found to be 130 pM.

B3: Anti-PD1 (VL5-VH6).IgG4-Linker 2-TGFbRII (antibody)
heavy: QVQLVESGGGVVQPGRSLRLDCKASGITFSNSGMHWVRQAPGKGLEWVAVIWYDGSKRYYADSVKGRFTISRDNSKNTLFLQMNSLRAEDTAVYYCATNDDYWGQGTLVTVSSASTKGPSVFPLAPCSRSTSESTAALGCLVKDYFPEPVTVSWNSGALTSGVHTFPAVLQSSGLYSLSSVVTVPSSSLGTKTYTCNVDHKPSNTKVDKRVESKYGPPCPSCPAPEFLGGPSVFLFPPKPKDTLMISRTPEVTCVVVDVSQEDPEVQFNWYVDGVEVHNAKTKPREEQFNSTYRVVSVLTVLHQDWLNGKEYKCKVSNKGLPSSIEKTISKAKGQPREPQVYTLPPSQEEMTKNQVSLTCLVKGFYPSDIAVEWESNGQPENNYKTTPPVLDSDGSFFLYSRLTVDKSRWQEGNVFSCSVMHEALHNHYTQKSLSLSPGKGGGGSGGGSIPPHVQKSVNNDMIVTDNNGAVKFPQLCKFCDVRFSTCDNQKSCMSNCSITSICEKPQEVCVAVWRKNDENITLETVCHDPKLPYHDFILEDAASPKCIMKEKKKPGETFFMCSCSSDECNDNIIFSEEYNTSNPD
light: not shown
B3: the “IC50, TGF-β1 neutralization activity (HEK-Blue TGF-β reporter cells)” value (from here on “IC50, TGF-β1 neutralization activity”) with TGF-β1 [1] was 1.2 pM.

B4: Anti-PD1 (VL5-VH6).IgG4 (antibody, V domains shown)
VH: QVQLVESGGGVVQPGRSLRLDCKASGITFSNSGMHWVRQAPGKGLEWVAVIWYDGSKRYYADSVKGRFTISRDNSKNTLFLQMNSLRAEDTAVYYCATNDDYWGQGTLVTVSS
VL: EIVLTQSPATLSLSPGERATLSCRASQSVSSYLAWYQQKPGQAPRLLIYDASNRATGIPARFSGSGSGTDFTLTISSLEPEDFAVYYCQQSSNWPRTFGQGTKVEIK
With B4, the “IC50, inhibition of TGF-β1 induced reporter gene activity (HEK-Blue TGF-β cells, SEAP)” value (“IC50, inhibition” below) in the test with TGF-β1 [2] amounted to 9 pM.

B5: Anti-PD1 (VH6-VL5) scFv-ADA2 (scFv)
chain 1: B4 VH
chain 2: B4 VL
chain 3: B1 heavy (part 2 of 2)
As to B5, the Kd with PD-1 Fc fusion protein amounted to 3460 pM.

B6: Anti-PD1 (VH6-VL5) IgG4-ADA2 (antibody)
heavy (part 1 of 2): B4 VH
heavy (part 2 of 2): B1 heavy (part 2 of 2)
light: not shown
notes: not shown: IgG4 heavy chain constant region
Turning to B6, the Kd with PD-1 Fc fusion protein is 0.0616 pM.

B7: Anti-PD1 (VL5-VH6).IgG4-Linker8-TGFbRII (antibody)
heavy: QVQLVESGGGVVQPGRSLRLDCKASGITFSNSGMHWVRQAPGKGLEWVAVIWYDGSKRYYADSVKGRFTISRDNSKNTLFLQMNSLRAEDTAVYYCATNDDYWGQGTLVTVSSASTKGPSVFPLAPCSRSTSESTAALGCLVKDYFPEPVTVSWNSGALTSGVHTFPAVLQSSGLYSLSSVVTVPSSSLGTKTYTCNVDHKPSNTKVDKRVESKYGPPCPSCPAPEFLGGPSVFLFPPKPKDTLMISRTPEVTCVVVDVSQEDPEVQFNWYVDGVEVHNAKTKPREEQFNSTYRVVSVLTVLHQDWLNGKEYKCKVSNKGLPSSIEKTISKAKGQPREPQVYTLPPSQEEMTKNQVSLTCLVKGFYPSDIAVEWESNGQPENNYKTTPPVLDSDGSFFLYSRLTVDKSRWQEGNVFSCSVMHEALHNHYTQKSLSLSPGKDPGSGGSVPLGSGGSNPGSIPPHVQKSVNNDMIVTDNNGAVKFPQLCKFCDVRFSTCDNQKSCMSNCSITSICEKPQEVCVAVWRKNDENITLETVCHDPKLPYHDFILEDAASPKCIMKEKKKPGETFFMCSCSSDECNDNIIFSEEYNTSNPD
light: not shown
B7: the “IC50, TGF-β1 neutralization activity” value with TGF-β1 [1] came out at 1.2 pM.

B8: Anti-PD1 (VL5-VH6).IgG4-Linker12-TGFbRII (antibody)
heavy: QVQLVESGGGVVQPGRSLRLDCKASGITFSNSGMHWVRQAPGKGLEWVAVIWYDGSKRYYADSVKGRFTISRDNSKNTLFLQMNSLRAEDTAVYYCATNDDYWGQGTLVTVSSASTKGPSVFPLAPCSRSTSESTAALGCLVKDYFPEPVTVSWNSGALTSGVHTFPAVLQSSGLYSLSSVVTVPSSSLGTKTYTCNVDHKPSNTKVDKRVESKYGPPCPSCPAPEFLGGPSVFLFPPKPKDTLMISRTPEVTCVVVDVSQEDPEVQFNWYVDGVEVHNAKTKPREEQFNSTYRVVSVLTVLHQDWLNGKEYKCKVSNKGLPSSIEKTISKAKGQPREPQVYTLPPSQEEMTKNQVSLTCLVKGFYPSDIAVEWESNGQPENNYKTTPPVLDSDGSFFLYSRLTVDKSRWQEGNVFSCSVMHEALHNHYTQKSLSLSPGKDPVLEREDKVTTSKNPGSIPPHVQKSVNNDMIVTDNNGAVKFPQLCKFCDVRFSTCDNQKSCMSNCSITSICEKPQEVCVAVWRKNDENITLETVCHDPKLPYHDFILEDAASPKCIMKEKKKPGETFFMCSCSSDECNDNIIFSEEYNTSNPD
light: not shown
As for B8, the “IC50, TGF-β1 neutralization activity” value with TGF-β1 [1] came to 2.7 pM.

B9: Anti-PD1(VH7-VL6) IgG4-TGFβRII (antibody)
heavy: QVQLVQSGVEVKKPGASVKVSCKASGYTFTNYYMYWVRQAPGQGLEWMGGINPSNGGTNFNEKFKNRVTLTTDSSTTTAYMELKSLQFDDTAVYYCARRDYRFDMGFDYWGQGTTVTVSSASTKGPSVFPLAPCSRSTSESTAALGCLVKDYFPEPVTVSWNSGALTSGVHTFPAVLQSSGLYSLSSVVTVPSSSLGTKTYTCNVDHKPSNTKVDKRVESKYGPPCPSCPAPEFLGGPSVFLFPPKPKDTLMISRTPEVTCVVVDVSQEDPEVQFNWYVDGVEVHNAKTKPREEQFNSTYRVVSVLTVLHQDWLNGKEYKCKVSNKGLPSSIEKTISKAKGQPREPQVYTLPPSQEEMTKNQVSLTCLVKGFYPSDIAVEWESNGQPENNYKTTPPVLDSDGSFFLYSRLTVDKSRWQEGNVFSCSVMHEALHNHYTQKSLSLSPGKGGGGSGGGGSIPPHVQKSVNNDMIVTDNNGAVKFPQLCKFCDVRFSTCDNQKSCMSNCSITSICEKPQEVCVAVWRKNDENITLETVCHDPKLPYHDFILEDAASPKCIMKEKKKPGETFFMCSCSSDECNDNIIFSEEYNTSNPD
light: EIVLTQSPATLSLSPGERATLSCRASKGVSTSGYSYLHWYQQKPGQAPRLLIYLASYLESGVPARFSGSGSGTDFTLTISSLEPEDFAVYYCQHSRDLPLTFGGGTKVEIKRTVAAPSVFIFPPSDEQLKSGTASVVCLLNNFYPREAKVQWKVDNALQSGNSQESVTEQDSKDSTYSLSSTLTLSKADYEKHKVYACEVTHQGLSSPVTKSFNRGEC
As for B9, the “IC50, inhibition” value in the test with TGF-β1 [2] was determined as 5.6 pM.

B10: Anti-PD1 (VH7-VL6) IgG4-ADA2 (antibody)
heavy (part 1 of 2): B1 heavy (part 1 of 2)
heavy (part 2 of 2): B1 heavy (part 2 of 2)
light: B9 light
notes: as for B6
In the case of B10, the Kd with PD-1 Fc fusion protein came out at 0.0663 pM.

B11: Anti-PD1 (VL6-VH7).IgG4(S108P).TGFbRII (antibody)
heavy: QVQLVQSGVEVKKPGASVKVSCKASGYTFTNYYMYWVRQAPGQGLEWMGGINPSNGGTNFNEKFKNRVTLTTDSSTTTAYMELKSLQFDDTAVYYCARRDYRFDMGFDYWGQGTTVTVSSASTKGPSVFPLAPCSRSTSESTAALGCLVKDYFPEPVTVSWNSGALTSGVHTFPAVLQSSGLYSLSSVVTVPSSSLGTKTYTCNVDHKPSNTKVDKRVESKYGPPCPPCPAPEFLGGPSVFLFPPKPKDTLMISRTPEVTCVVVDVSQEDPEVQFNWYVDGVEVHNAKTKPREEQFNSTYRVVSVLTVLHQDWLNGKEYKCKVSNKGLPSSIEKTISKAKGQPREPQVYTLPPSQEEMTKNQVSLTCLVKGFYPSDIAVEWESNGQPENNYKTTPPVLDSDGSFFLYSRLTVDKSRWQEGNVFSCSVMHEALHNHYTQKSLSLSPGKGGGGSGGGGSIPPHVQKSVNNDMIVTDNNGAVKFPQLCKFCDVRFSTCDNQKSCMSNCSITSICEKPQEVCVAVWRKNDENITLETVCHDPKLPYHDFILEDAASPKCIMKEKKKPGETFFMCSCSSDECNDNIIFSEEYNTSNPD
light: B9 light
Consider B11, for which the “IC50, inhibition” value with TGF-β1 [2] was 9.3 pM.

B12: Anti-PD1 (VL5-VH6).IgG4-Linker7-TGFbRII (antibody)
heavy: QVQLVESGGGVVQPGRSLRLDCKASGITFSNSGMHWVRQAPGKGLEWVAVIWYDGSKRYYADSVKGRFTISRDNSKNTLFLQMNSLRAEDTAVYYCATNDDYWGQGTLVTVSSASTKGPSVFPLAPCSRSTSESTAALGCLVKDYFPEPVTVSWNSGALTSGVHTFPAVLQSSGLYSLSSVVTVPSSSLGTKTYTCNVDHKPSNTKVDKRVESKYGPPCPSCPAPEFLGGPSVFLFPPKPKDTLMISRTPEVTCVVVDVSQEDPEVQFNWYVDGVEVHNAKTKPREEQFNSTYRVVSVLTVLHQDWLNGKEYKCKVSNKGLPSSIEKTISKAKGQPREPQVYTLPPSQEEMTKNQVSLTCLVKGFYPSDIAVEWESNGQPENNYKTTPPVLDSDGSFFLYSRLTVDKSRWQEGNVFSCSVMHEALHNHYTQKSLSLSPGKDPGSGSVPLGSGSNPGSIPPHVQKSVNNDMIVTDNNGAVKFPQLCKFCDVRFSTCDNQKSCMSNCSITSICEKPQEVCVAVWRKNDENITLETVCHDPKLPYHDFILEDAASPKCIMKEKKKPGETFFMCSCSSDECNDNIIFSEEYNTSNPD
light: not shown
As to B12, in the test with TGF-β1 [1], the “IC50, TGF-β1 neutralization activity” value worked out at 1.1 pM.
